# “Also recorded” adds a separate entry of the source.
# How the values were obtained:
# [1] = Biodistribution after intravenous (intravascular) administration in the rat (Example 5); format: in vivo
# From the text: (§1) The removed organs (brain, kidney, liver, heart, intestine, lung, gonads, blood, urine) were weighed and their activities were counted on NaI gamma camera.
# Wistar rats = assay: Acute toxicity test after intravenous and intraperitoneal administration in the rat (Example 5); format: in vivo; details: male Wistar rats, intravenous injection
# Procedure: Species: Wistar rats RjHan: Wi (free of specific pathogens)
# Number and sex and Weight: 6 healthy adult rats (males), average weight 300 g
# 3 groups of male rats: • Group 1 (“G5”): 2 rats (1 and 2) receiving 0.1 ml of labeled solution of dendrimer alone, one via intravenous administration, the other intraperitoneally 1 • Group 2 (“G5-HLS”): 2 rats (3 and 4) receiving 0.1 ml of the solution of the test item “G5 dendrimer {1-nitro-1H-imidazole-methyl -1,2,3-triazol-methyl-di(2-pycolyl)amine}”, one via intravenous administration, the other intraperitoneally • Group 3 (“HLS”): 2 rats (n ° 4 and 5) receiving 0.1 ml of the labeled 1-nitro-1H-imidazole-methyl -1,2,3-triazole-methyl-di-(2-pycolyl) amine, one via intravenous administration, the other intraperitoneally
# [2] = Biodistribution after in situ direct intrahepatic injection in the rat (Example 6); format: in vivo
# Procedure: They were autopsied and major organs were observed macroscopically.
# as §1
# The assessment of radioactivity was carried out on the various organs and the carcass alone, urine and whole blood.
# FIG. 6 is a scintigraphic image of biodistribution after injection: it will be noted that only the liver, stomach and intestines are discernible.
# humans = details: 1.3 GBq (35 mCi) dose; cited from earlier work
substance,measurement,setting,value
"Dendrimer G5 {1-nitro-1H-Imidazole-methyl-1,2,3-triazol-methyl-di-(2-pycolyl)amine}",liver binding after intravascular administration,[1],1.53 % DIg
same,precipitation or thrombus formation at the injection site,Wistar rats,no precipitation was observed or thrombus formation
same,retention at the site of introduction,"[2]; male rat, laparotomy and direct injection into a liver segment, listed as dendrimer conjugate",remains almost stable at the site of introduction; also recorded: has not moved a lot from the site of its deposition
same,hepatic binding rate,"[2]; rat, direct intrahepatic injection, sacrifice at 60 min, 99mTc-labelled",53.7%
same,biodistribution outside the targeted site,"[2]; rat, in situ administration at a hepatic lobe, scintigraphy (FIG. 6)",negligible
same,initial injected dose by hepatic mass charged with the test item,"[2]; rat, in situ intrahepatic injection, liver",33.5 % DIg
rhenium-188 hydroxyethylidene diphosphonate,systemic toxicity in humans,humans,no significant toxicity
